Consider two substances from patent US20170342140A1.

In experiment [1] the target is non-fucosylated glycopeptide B (SEQ ID NO: 22), BSA-PEG4 conjugate. Put plainly: antigen solid-phase ELISA, WGA lectin as positive control.
The target of experiment [2] is glycopeptide B (SEQ ID NO: 21), BSA-PEG4 conjugate. Put plainly: antigen solid-phase ELISA, AAL lectin as positive control. Background: In an ELISA, binding on a coated surface is turned into a signal by an enzyme label.

In experiment [1], WGA lectin registered an OD450 of 3 OD450.

Regarding AAL lectin (from UniProt P18891 2-313), in experiment [2], the OD450 stood at 0.335 OD450.
